This experiment has as its target Homo sapiens full-length TRPV4 (hTRPV4) with C-terminal FLAG-tag and 10xHis-tag (human) (UniProt Q9HBA0). Kind of experiment: cryo-EM structure.

From publication doi:10.1101/2023.03.15.532784 come the findings set out here.

Chain of UniProt Q9HBA0 (Q9HBA0 whole entry): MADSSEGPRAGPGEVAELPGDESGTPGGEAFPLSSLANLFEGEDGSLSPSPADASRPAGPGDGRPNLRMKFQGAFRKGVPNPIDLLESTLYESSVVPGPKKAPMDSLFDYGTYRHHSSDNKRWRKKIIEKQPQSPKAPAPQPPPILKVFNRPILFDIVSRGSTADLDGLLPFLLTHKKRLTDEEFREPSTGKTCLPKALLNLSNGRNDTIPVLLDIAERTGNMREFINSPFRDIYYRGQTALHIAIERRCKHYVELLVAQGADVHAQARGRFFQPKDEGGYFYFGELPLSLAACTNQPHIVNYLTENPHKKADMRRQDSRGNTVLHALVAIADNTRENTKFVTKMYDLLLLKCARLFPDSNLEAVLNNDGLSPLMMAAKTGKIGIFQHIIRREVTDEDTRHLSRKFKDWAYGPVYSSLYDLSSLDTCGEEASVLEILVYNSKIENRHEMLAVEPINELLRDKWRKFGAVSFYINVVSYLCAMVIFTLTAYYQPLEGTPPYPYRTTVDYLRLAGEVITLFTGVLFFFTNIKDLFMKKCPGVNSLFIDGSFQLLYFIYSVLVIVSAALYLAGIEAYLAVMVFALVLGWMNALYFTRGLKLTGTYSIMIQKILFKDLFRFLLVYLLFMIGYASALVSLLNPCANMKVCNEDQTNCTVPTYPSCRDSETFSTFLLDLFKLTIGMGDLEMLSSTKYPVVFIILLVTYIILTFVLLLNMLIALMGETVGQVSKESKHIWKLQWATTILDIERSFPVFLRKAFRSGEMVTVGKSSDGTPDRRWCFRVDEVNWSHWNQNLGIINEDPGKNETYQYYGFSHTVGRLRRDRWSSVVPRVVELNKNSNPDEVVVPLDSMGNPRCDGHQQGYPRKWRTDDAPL

As to “endogenous RhoA copurified with overexpressed TRPV4 (from UniProt P61586 1-193) (natural protein)”, the stoichiometry N (RhoA per TRPV4 subunit) was 1.
